Measurements published in paper PMC9352773.

Target: ScNtx-NT647, fluorescently labeled variant of ScNtx
Experiment: MST; 5 nM ScNtx-NT647 held constant, Torpedo nAChR in asolectin-MSP1E3D1 nanodiscs titrated 0.5 nM to 1 μM; PBS pH 7.4, 0.05% Tween, 20 °C, high MST power, 4 % excitation power, triplicate; apparent affinity

Torpedo muscle-type nicotinic acetylcholine receptor, native, purified, reconstituted in asolectin-MSP1E3D1 lipidic nanodiscs (from UniProt P02710 25-461; P02714 18-506; P02718 22-522; P02712 25-493) (complex)
Kd: 28 nM
